Assay results taken from the RNAGym collection of RNA variant scans (doi:10.7554/elife.90254).

B1: OR4K15 (parent)
chain: GUUAACGGUCAUAGGCCAUGGAAACUAGGAGCACCAUUUCGCUGCCAGUGAAGAAAUGAACAAAGAAAAUCUGGGCCAGGCAGGCAUCAAAAGAAAUAGUCUUGCGCUCAACCAGAAAGUCUGUAAUCAUUUUAAGGGUA

Variants of: B1
Experiment: self-cleavage, relative activity (ratio to wild type); higher = more cleavage; in vitro, sequencing; the parent is a self-cleaving ribozyme

Variant | self-cleavage
U49A A64G | 1.2
A51U U139A | 1.14
A51U A63G | 1.62
A52C A90G | 0.58
A47U U139G | 1.4
A51U A125G | 0.42
A51U A125U | 1.64
U49C U108A | 0.01
G48C A92U | 1.18
A51G G84A | 1.78
U49A U72G | 0.14
G48U A56G | 1.4
A52C A68G | 0.55
U49A U102A | 0.95
A51U A62G | 1.48
A51U A62U | 1.15
U49A A98C | 1.58
G50A U108A | 0.01
G48A A64U | 1.63
A51U A64G | 1.28
A51G G138C | 1.66
A51C A52G | 1.83
U49A A51G | 1.02
A47U U133C | 0.97

Variant | self-cleavage
U49C U139A | 1.15
G48A U49C | 1.73
U49G U139C | 1.49
U49G U139G | 1.58
U49G U139A | 1.7
U49C A118U | 0.62
U49C A118G | 0.35
G50A A117G | 1.92
U49A A86G | 1.19
G50U A116G | 0.75
A51U G83A | 2.1
U49A A114G | 0.25
A52C A60G | 1
A51G A135U | 0.7
U49C A52G | 1.16
U49C U120A | 1.64
U49C U120C | 0.52
A51U U57G | 0.64
A51U U130C | 1.62
A51U U130A | 1.4
A51G A89G | 0.95
A51G A89U | 1.41
A51G U103C | 1.09
A51G U57C | 0.93

Variant | self-cleavage
G50A A60C | 1.9
U49A A89G | 0.47
U49C G104A | 0.04
A51G A126G | 0.71
G48A G73A | 0.22
U49C A60G | 1.24
U49A U70C | 0.3
A51G A59U | 1.74
A47U U100C | 2.2
A51G A68G | 0.71
A51G A68C | 1.46
A51G A68U | 1.9
U49C C76U | 0.07
U49C A90G | 0.94
U49C U132A | 1.65
A52C A91G | 1.96
G48A A126G | 1.15
G48A A126U | 1.9
U49C A94G | 1.44
U49C A51U | 0.99
U49C A51C | 0.34
U49C A51G | 0.9
A51U U132C | 1.06
A51U U132G | 1.49

Variant | self-cleavage
G48A A82U | 0.12
A51G U122A | 1.85
A51G A62C | 1.58
A51G A62G | 0.33
A51C A95G | 1.65
A51C A95U | 1.79
A51U U102C | 1.99
A51G G74U | 0.37
G50U A51U | 1.95
U49A U108C | 0.01
U49A U108A | 0.02
G48U U102C | 1.31
A51U G74U | 0.25
U49A A95G | 1.76
A51U U87A | 1.92
U49C U122A | 1.33
U49C U122G | 1.54
U49A A78U | 0.33
U49C A140G | 2.12
A51U A91G | 0.5
U49C C105A | 0.03
A47U U49A | 0.97
A47U U49C | 0.36
A51G A114G | 1.1

Variant | self-cleavage
U49G U108C | 0.01
A51U U131A | 1.32
G50A A52G | 2.63
G48C A67G | 1.37
A51U G58U | 1.45
A52C A64G | 1.38
A52C A67U | 1.67
A51G U127A | 2.09
A51G U127C | 1.04
A51C A78G | 0.24
U49C U57A | 1.03
U49C U57C | 0.57
A51G A86U | 1.56
A51G A86C | 0.65
U49G U122A | 1.35
U49G U122C | 0.39
A52C A129G | 0.62
U49G A66G | 1.77
U49A A82G | 0.52
A51U C101U | 0.72
A51G U100A | 0.56
A51G U100C | 1.87
G48A A59G | 1.25
G48A A59U | 0.86

Variant | self-cleavage
A51G U124G | 1.05
U49C U124C | 0.71
U49C G75A | 0.04
U49A | 1.05
U49G | 1.13
U49C | 1.12
U49G A68G | 1.76
U49C U70A | 1.1
A51G A118G | 1.29
G50A G138A | 1.51
A51U A95G | 2
G48A U120C | 1.38
U49G A90G | 0.75
U49C G79A | 0.13
A51G A95G | 1.7
A51G U70C | 0.95
A51G A64U | 1.75
A51G A64G | 1.42
U49G A114G | 0.06
U49C U97A | 2.12
U49A A135G | 1.08
U49G A116G | 0.64
A47U U122C | 0.67
A47U U131C | 0.54

Variant | self-cleavage
A51U A59G | 0.95
U49A U87C | 0.22
U49A U87A | 1.78
U49A A118U | 0.7
G50A A63G | 1.21
U49A A56G | 1.74
A51G G83U | 0.7
A51G G83A | 1.42
G48A U133C | 2.78
U49A A90G | 0.81
A51G A54U | 1.4
U49C A134U | 1.2
U49C A67G | 1.2
U49C U87A | 2.09
A51G G136A | 2
U49C A95G | 1
A51U U127C | 0.76
A51U U127A | 1.75
A51U A52G | 0.93
A51U A52U | 1.99
U49C A63G | 1.75
U49A U57C | 1.11
U49A U57G | 0.46
U49C A126G | 1.26

Variant | self-cleavage
U49G U102C | 1.95
U49C A86G | 1.03
U49C A86U | 1.68
U49C U103A | 0.71
A52C A54G | 1.34
U49C C109U | 0.18
G48A U130C | 0.82
A51U A67U | 2.12
A51U A67G | 1.23
A47U U124C | 0.5
U49C A135U | 2.28
A51G A60G | 1.2
A51U U100C | 2.13
A51G A96U | 0.46
A47U G106A | 0.01
A47U G106U | 0.01
G48A U102A | 1.1
U49C U72A | 0.15
A51U A78U | 0.36
A47U U103G | 0.03
U49A A67G | 1.13
G48A A92G | 2.02
G48A A92U | 1.62
G50C A116G | 0.9

Variant | self-cleavage
U49C A66G | 1.55
U49A A111G | 0.01
U49A A111C | 0.01
A51U U120C | 0.47
A51G U130A | 1.63
A51G U130G | 0.67
A51G U108C | 0.02
U49C U130A | 0.28
A51G C61G | 0.99
A51C U124C | 0.98
G50A U87A | 1.75
A51G A117G | 2.07
A51G A117U | 0.52
U49C G119A | 1.6
A51G U72G | 0.25
A51G U72C | 0.38
U49G A54G | 1.61
U49C C121G | 2.4
A51C | 1.43
A51U | 1.5
A51G | 1.36
G48A U124A | 0.41
A47U U102G | 0.28
A47U U102A | 0.45

Variant | self-cleavage
G50A U133C | 1.88
U49A A63G | 1.46
U49C A56G | 1.57
U49C A56C | 1.25
U49G A60G | 0.64
A51U A55U | 1.52
A51G U133G | 1.24
A51G U133A | 1.15
U49A C61U | 1.38
G48A A51G | 2.22
G48A | 1.44
G48C | 1.46
G48U | 1.61
A51G U139A | 1.48
A51U C76U | 0.33
U49C A82U | 0.2
U49C A82G | 0.42
G50U U124A | 0.91
A51G G73A | 0.26
U49A A69U | 1.92
U49A A129G | 0.63
G50U A66U | 2.16
A47U A135C | 1.32
U49C A111G | 0.02

Variant | self-cleavage
G48A A110G | 0.12
A51C U72A | 0.19
A51U U72C | 0.23
A51U U72A | 0.45
G48A U108A | 0.01
A51G U120G | 2.37
U49C A59U | 1.24
U49C A59G | 0.7
U49C A59C | 0.9
U49C A68U | 1.95
U49C A68C | 1.29
U49A U139C | 1.97
A47U G99A | 0.23
U49G U132C | 1.1
A47U U108C | 0.01
U49C A62G | 1.57
A51G G106A | 0
A51G A55C | 0.42
A51G A67G | 1.07
A47U U87C | 1.34
A51U A82G | 0.68
A47U U72A | 0.13
A51C U57G | 1.26
A51U A110G | 0.23

Variant | self-cleavage
A51G G65A | 1.12
U49A A140G | 1.41
A52C A118G | 0.72
U49A G79A | 0.12
A51U G137A | 1.43
U49C A55U | 1.67
A52C A111G | 0
U49A A126U | 1.59
A51G A66G | 1.5
A51G U97C | 1.75
U49G A69G | 0.88
A51G A98G | 0.29
A51C A67G | 0.66
A51C G99A | 0.94
A51G A91U | 1.61
A47U U132A | 0.51
A47U U132C | 1.02
U49C G137U | 2.29
U49C G137A | 1.95
A51U A66G | 2.03
U49A U131C | 1.01
U49G A118G | 1.14
U49C C128A | 1.11
A51G A111G | 0.03

Variant | self-cleavage
U49A A62U | 1.92
G50A G104A | 0.1
A51G U131C | 1.25
A51G U131G | 1.08
G50U | 1.11
G50A | 1.68
G50C | 1.54
A51G C105U | 0.12
U49C A114C | 0.03
U49C A114G | 0.42
U49G A92G | 0.7
A47U U70G | 1.16
A47U U70C | 0.13
A51G U87G | 0.43
A51G C77U | 1.46
U49A A116G | 0.3
A51U A117G | 2.45
A51G C128U | 2.26
U49A A117G | 0.49
U49C A129G | 1.82
A51G A129C | 0.98
A51G A129G | 1.11
A47U U120A | 1.19
A51G A78G | 0.2

Variant | self-cleavage
U49C A64G | 2.02
A51G A94U | 1.78
U49C G74A | 0.09
U49A A60G | 1.32
U49A G74A | 0.24
A47U U97A | 1.74
A52C A117G | 1.22
A51G C76A | 0.07
A51U A54G | 1.36
U49A U122A | 1.32
U49A U122C | 0.56
A51C U131C | 1.28
A51C A117U | 1.28
U49A G75C | 0.07
A51G A110G | 0.08
A51C U127A | 2.59
A51C U127C | 1.02
U49C G138A | 1.86
A51G A56G | 1.22
U49C A89C | 1.36
U49C A89G | 1.26
G50U A114U | 0.08
